One test concerns the target VRC01GL Fab (human). The test can be described thus: BLI; Fab immobilised on anti-human Fab-CH1 (FAB2G) biosensors; 426c core in solution; Octet Red 96, 29°C, 500 r.p.m.; kinetic buffer (1X PBS, 0.01% BSA, 0.02% Tween 20, 0.005% NaN3); 1:1 binding model; relative apparent affinities.
In test [1] the target is VRC01GL IgG (inferred germline precursor of the VRC01 antibody) (human). As to the kind of experiment: BLI; IgG immobilised on anti-AHC biosensors (20 µg/ml in PBS); DS-SOSIP trimer or 426c core in solution, dilution series; Octet Red 96, 29°C, 500 r.p.m.; kinetic buffer (1X PBS, 0.01% BSA, 0.02% Tween 20, 0.005% NaN3); 1:1 binding model; relative apparent affinities.
Test [2] concerns the target VRC01GL IgG (inferred germline precursor of the VRC01 antibody). As to the kind of experiment: BLI. The following applies: 426c core (293F-expressed) injected at 0.5, 1, 2.5, 4, 5, 10, 20, 40, 80, 160 µM.
The target of another test is 12A21GL IgG (human). As to the kind of experiment: BLI; IgG immobilised on anti-AHC biosensors (20 µg/ml in PBS); DS-SOSIP trimer or 426c core in solution, dilution series; Octet Red 96, 29°C, 500 r.p.m.; kinetic buffer (1X PBS, 0.01% BSA, 0.02% Tween 20, 0.005% NaN3); 1:1 binding model; relative apparent affinities.

This passage reports Kd and fold change of KD against the 426c core results from article PMC6237438.

Regarding “426c core (wild-type NLGSs), HEK293F-expressed (domain or fragment)”, the Kd with VRC01GL Fab (human) amounted to 11000 nM.
Take “EndoH-treated 426c core (HEK293 GnTI-/--expressed) (domain or fragment)”: the Kd in test [1] was determined as 245 nM.
As to “426c DS-SOSIP D3 trimer (from UniProt Q2N0S6 1-860) (complex)”, the Kd in test [1] came out at 43 nM.
“426c core (wild-type NLGSs), HEK293F-expressed S278A” registered a Kd in test [2] of 1900 nM.
In the case of “426c S278T core, HEK293 GnTI-/--expressed (domain or fragment)”, the fold change of KD against the 426c core (in test [1]; with 12A21GL IgG (human)) was 10 fold each time.
In test [2], “426c core (wild-type NLGSs), HEK293F-expressed S278A; T465A” showed a Kd of 8900 nM.
As for “426c S278A core, HEK293 GnTI-/--expressed (domain or fragment)”, in test [1], the Kd amounted to 204 nM.
Consider “426c core (wild-type NLGSs), HEK293 GnTI-/--expressed (domain or fragment)”, for which the Kd in test [1] is 2000 nM; in the test with VRC01GL Fab (human), 15000 nM.
The substance “426c core (wild-type NLGSs), HEK293F-expressed S278A; T462A” returned a Kd in test [2] of 2500 nM.
